Measurements as given in publication PMC8141534 (The Journal of Biological Chemistry, 2021).

Tests used:
MG1655 gene expression = format: cell-based, Escherichia coli; details: qRT-PCR, relative to empty vector
[1] = test system: Rho-dependent termination (trpt′ and trac terminators, lacZ reporter); format: cell-based, Escherichia coli; details: trpt′ and trac, LB-X-gal, induction by 50 μM IPTG
E. coli Rho [2] = assay: Rho-mediated RNA release from stalled (roadblocked) elongation complex; format: biochemical, Escherichia coli; details: Fig. S4B
E. coli Rho [3] = details: compared with peptide 33; ref [9]; cited from earlier work
Source text: Next, we assayed the peptide-mediated inhibition of the in vitro transcription termination functions of the Rho. We used a linear DNA template where a trpt′ terminator is fused downstream of a strong T7A1 promoter. On this template, efficient transcription termination over a terminator zone is usually observed in the presence of Rho (Fig. 3D; ([16])). The amount of run-off transcripts at the end of this template gives the measure of Rho inhibition by the peptides. We observed that the amount of ...

P167L Rho [4] = target: T1, P167L Rho (Escherichia coli, UniProt P0AG30, P167L); details: ref [11]; cited from earlier work
[5] = test system: Rho point mutants, R144E, R146E, and, E148R; details: cited from earlier work
WT Rho = WT Rho (Escherichia coli, UniProt P0AG30); details: earlier work; ref [11]; cited from earlier work
pathogenic Rho proteins = details: ref [13]; cited from earlier work
[6] = test system: Rho proteins from pathogenic bacteria; format: biochemical; details: 35 μM peptide 33, 50 nM Rho, E. coli RNAP stalled EC, trpt′
[7] = test system: Rho-dependent termination (trac and trpt′ lacZ fusions); format: cell-based, Escherichia coli; details: qRT-PCR, 2−ΔΔCt relative to empty vector; 100 μM IPTG (20 μM for Psu); at least three biological replicates
P167L Rho [8] = target: T1, P167L Rho; format: binding; details: Rho:ligand in μg: 1:6 (peptide 16), 1:4 (peptide 33), 1:3 (Psu); 1 mM ATP, pH 8.0, 37 °C, 20 min; SD of two or three measurements
Mycobacterium bovis BCG = format: cell-based
E. coli Rho [9] = details: cited from earlier work
[10] = test system: Rho-dependent termination (galEP3 reporter); assay: in vivo Rho-dependent termination, galEP3 reporter, MacConkey-galactose plates; format: cell-based, Escherichia coli; details: MC4100 galEP3, MacConkey-galactose plates, overexpression
[11] = test system: Mycobacterium smegmatis mc^2155; format: cell-based

Chain of WT Rho (P0AG30 whole entry): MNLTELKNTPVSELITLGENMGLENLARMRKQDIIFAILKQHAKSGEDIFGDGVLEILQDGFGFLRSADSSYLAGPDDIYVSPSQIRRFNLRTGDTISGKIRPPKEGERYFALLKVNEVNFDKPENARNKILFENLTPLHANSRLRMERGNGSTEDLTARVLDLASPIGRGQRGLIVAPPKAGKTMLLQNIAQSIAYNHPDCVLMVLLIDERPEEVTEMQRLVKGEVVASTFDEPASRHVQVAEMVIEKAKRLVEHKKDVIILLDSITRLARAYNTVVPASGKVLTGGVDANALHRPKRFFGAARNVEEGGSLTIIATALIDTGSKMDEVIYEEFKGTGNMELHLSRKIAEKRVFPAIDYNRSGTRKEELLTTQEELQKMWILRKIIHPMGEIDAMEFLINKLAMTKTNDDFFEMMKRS

B1: Psu: bacteriophage P4 capsid protein, natural Rho antagonist, ∼42-kDa dimer (protein)
chain: MESTALQQAFDTCQNNKAAWLQRKNELAAAEQEYLRLLSGEGRNVSRLDELRNIIEVRKWQVNQAAGRYIRSHEAVQHISIRDRLNDFMQQHGTALAAALAPELMGYSELTAIARNCAIQRATDALREALLSWLAKGEKINYSAQDSDILTTIGFRPDVASVDDSREKFTPAQNMIFSRKSAQLASRQSV
- upregulation of tested genes (in words) (MG1655 gene expression): highest level of upregulations of the tested genes
- colour of colonies, lacZ reporter (in words) [1]: deep blue colonies
- inhibition of Rho-induced RNA release from stalled EC (in words) (E. coli Rho [2]; Fig. 3E): significantly inhibited
- Frac. of RNA released (%) (E. coli Rho [2]; Psu 5.0, Rho 50 nM): 12 ± 0.4%
- in vitro Rho inhibition in termination assay (in words) (E. coli Rho [3]): A similar level of in vitro Rho inhibition
- in vitro stable complex with P167L Rho (in words) (P167L Rho [4]): stable complex between Psu and Rho could form if a mutant Rho, P167L, was used
- binding of Rho mutants R144E, R146E, E148R (in words) [5]: did not bind to Psu
- in vitro stable complex with WT Rho (in words) (WT Rho): failed to obtain a stable in vitro Rho–Psu complex with the WT Rho
- inhibition of ATP hydrolysis of Salmonella and Vibrio Rho with poly(C) RNA (in words) (pathogenic Rho proteins): too fast to be inhibited by Psu
- inhibition of RNA release by pathogenic Rho proteins (in words) [6]: could inhibit the termination process by all the different Rho proteins
- enhancement of expression of Plac-trac-lacZ fusion [7]: 28 fold
- Fraction of Rho associated (%) (P167L Rho [8]): 49 ± 5%
- growth phenotype upon streaking (in words) (Mycobacterium bovis BCG): very sick phenotype
- rate of RNA-dependent ATP hydrolysis of Rho (in words) (E. coli Rho [9]): reduced the rate of RNA-dependent ATP hydrolysis
- colour of colonies, galEP3 reporter (in words) [10]: appearance of red colonies
- growth phenotype upon streaking (in words) [11]: very sick phenotype
- transformants obtained (in words) [11]: fewer colonies than those obtained from the transformation with the empty vector
